According to PMC4514675, “Novel Apo E-Derived ABCA1 Agonist Peptide (CS-6253) Promotes Reverse Cholesterol Transport and Induces Formation of preβ-1 HDL In Vitro” (PLoS ONE, 2015):
Several values for one entry are separate records, joined by “and”; a condition that tells them apart may be missing. Equal values may be shown once.

How the values were obtained:
[1] = target: T1, ABCA1 (Mus musculus, UniProt P41233); test: ABCA1-mediated cholesterol efflux from cAMP-treated J774 macrophages; format: cell-based; details: mean ± SD
T1 construct: host or cells: J774 mouse macrophages stimulated with Cpt-cAMP
Description: BHK cells stably transfected with an ABCA1 or ABCG1 expression vector that is mifepristone inducible and cells transfected with the same vector lacking the ABCA1 cDNA insert (mutant or mock-transfected) were generously provided by the late Dr. John F. Oram from the Department of Medicine, University of Washington, and were characterized and cultured as previously described. […] Mouse-derived peritoneal macrophages J774 were purchased from American Tissue Culture Collection (ATCC TIB-67, Cederlane, Burlington, Canada). For induction of ABCA1, BHK cells were incubated for 18–20 h with 10 nM mifepristone. J774 macrophages were stimulated with 0.3 mM Cpt-cAMP 8-(4-Chlorophenylthio)-cyclic adenosine monophosphate (Sigma). […]
All cell culture incubations were performed at 37 °C in a humidified 5% CO2. […] Media were collected, centrifuged at 3.000 g for 5min to remove cell debris, and counted for radioactivity. […] Further, 0.2 ml cells lysates were mixed with scintillation liquid and counted for radioactivity. […] Cholesterol efflux was calculated according to the following formula as the percentage of ^3H-cpm medium/(^3H-cpm medium + ^3H-cpm cells) x 100%. Efflux efficiency (Km) was calculated using the Michaelis-Menten equation (Graph-Pad Prism6 software) respectively (S1, S8 and S9 Figs.)

[2] = test system: BHK-mock cells; test: Cholesterol efflux from BHK-mock cells to acceptor in human plasma; format: cell-based, hamster
Experimental: We investigated cholesterol efflux from BHK cells after adding lipid free CS-6253 to media cell culture or to human EDTA-plasma which had been stored at -80°C. BHK overexpressing human ABCA1 were labeled with 2 μCi/ml ^3H-free cholesterol (Perkin Elmer, Norwalk, Connecticut) for 24 h. Afterward, BHK-ABCA1 were stimulated with 10 nmol/l mifepristone for 18–20 h (13). Cells were incubated with various doses of acceptor in media for 4 h at 37°C. Alternatively, plasma samples were first pre-incubated for 5 min at 37°C in plasma at mole ratios (10:1 or 1:1 relative to plasma apo A-I). To obtain the HDL fraction, apoB lipoproteins were precipitated from plasma by polyethylene glycol (PEG). Also, increased doses of lipid free CS-6253 and nHDL-CS-6253 were tested for cholesterol efflux after incubation with human plasma for optimum 1h at 37°C. ^3[H]-cholesterol loaded BHK cells expressing ABCA1 were incubated with 2.8% apoB depleted plasma samples [19] for 4 h for the efflux assays. Lipid free apo A-I and nHDL-apo A-I were used as control, nHDL-CS-6253 and nHDL-apo A-I were generated after incubation with BHK cells expressing ABCA1. […]
Fig 7 Dose dependent effects of pre-incubation of plasma with lipid free CS-6253, or nHDL-CS-6253 on ABCA1 cholesterol efflux. […] Isolated HDL fractions by PEG were separated by 2D-PAGGE and HDL subpopulations were detected by apo A-I Western blot. […]

T1 sequence (P41233 whole entry): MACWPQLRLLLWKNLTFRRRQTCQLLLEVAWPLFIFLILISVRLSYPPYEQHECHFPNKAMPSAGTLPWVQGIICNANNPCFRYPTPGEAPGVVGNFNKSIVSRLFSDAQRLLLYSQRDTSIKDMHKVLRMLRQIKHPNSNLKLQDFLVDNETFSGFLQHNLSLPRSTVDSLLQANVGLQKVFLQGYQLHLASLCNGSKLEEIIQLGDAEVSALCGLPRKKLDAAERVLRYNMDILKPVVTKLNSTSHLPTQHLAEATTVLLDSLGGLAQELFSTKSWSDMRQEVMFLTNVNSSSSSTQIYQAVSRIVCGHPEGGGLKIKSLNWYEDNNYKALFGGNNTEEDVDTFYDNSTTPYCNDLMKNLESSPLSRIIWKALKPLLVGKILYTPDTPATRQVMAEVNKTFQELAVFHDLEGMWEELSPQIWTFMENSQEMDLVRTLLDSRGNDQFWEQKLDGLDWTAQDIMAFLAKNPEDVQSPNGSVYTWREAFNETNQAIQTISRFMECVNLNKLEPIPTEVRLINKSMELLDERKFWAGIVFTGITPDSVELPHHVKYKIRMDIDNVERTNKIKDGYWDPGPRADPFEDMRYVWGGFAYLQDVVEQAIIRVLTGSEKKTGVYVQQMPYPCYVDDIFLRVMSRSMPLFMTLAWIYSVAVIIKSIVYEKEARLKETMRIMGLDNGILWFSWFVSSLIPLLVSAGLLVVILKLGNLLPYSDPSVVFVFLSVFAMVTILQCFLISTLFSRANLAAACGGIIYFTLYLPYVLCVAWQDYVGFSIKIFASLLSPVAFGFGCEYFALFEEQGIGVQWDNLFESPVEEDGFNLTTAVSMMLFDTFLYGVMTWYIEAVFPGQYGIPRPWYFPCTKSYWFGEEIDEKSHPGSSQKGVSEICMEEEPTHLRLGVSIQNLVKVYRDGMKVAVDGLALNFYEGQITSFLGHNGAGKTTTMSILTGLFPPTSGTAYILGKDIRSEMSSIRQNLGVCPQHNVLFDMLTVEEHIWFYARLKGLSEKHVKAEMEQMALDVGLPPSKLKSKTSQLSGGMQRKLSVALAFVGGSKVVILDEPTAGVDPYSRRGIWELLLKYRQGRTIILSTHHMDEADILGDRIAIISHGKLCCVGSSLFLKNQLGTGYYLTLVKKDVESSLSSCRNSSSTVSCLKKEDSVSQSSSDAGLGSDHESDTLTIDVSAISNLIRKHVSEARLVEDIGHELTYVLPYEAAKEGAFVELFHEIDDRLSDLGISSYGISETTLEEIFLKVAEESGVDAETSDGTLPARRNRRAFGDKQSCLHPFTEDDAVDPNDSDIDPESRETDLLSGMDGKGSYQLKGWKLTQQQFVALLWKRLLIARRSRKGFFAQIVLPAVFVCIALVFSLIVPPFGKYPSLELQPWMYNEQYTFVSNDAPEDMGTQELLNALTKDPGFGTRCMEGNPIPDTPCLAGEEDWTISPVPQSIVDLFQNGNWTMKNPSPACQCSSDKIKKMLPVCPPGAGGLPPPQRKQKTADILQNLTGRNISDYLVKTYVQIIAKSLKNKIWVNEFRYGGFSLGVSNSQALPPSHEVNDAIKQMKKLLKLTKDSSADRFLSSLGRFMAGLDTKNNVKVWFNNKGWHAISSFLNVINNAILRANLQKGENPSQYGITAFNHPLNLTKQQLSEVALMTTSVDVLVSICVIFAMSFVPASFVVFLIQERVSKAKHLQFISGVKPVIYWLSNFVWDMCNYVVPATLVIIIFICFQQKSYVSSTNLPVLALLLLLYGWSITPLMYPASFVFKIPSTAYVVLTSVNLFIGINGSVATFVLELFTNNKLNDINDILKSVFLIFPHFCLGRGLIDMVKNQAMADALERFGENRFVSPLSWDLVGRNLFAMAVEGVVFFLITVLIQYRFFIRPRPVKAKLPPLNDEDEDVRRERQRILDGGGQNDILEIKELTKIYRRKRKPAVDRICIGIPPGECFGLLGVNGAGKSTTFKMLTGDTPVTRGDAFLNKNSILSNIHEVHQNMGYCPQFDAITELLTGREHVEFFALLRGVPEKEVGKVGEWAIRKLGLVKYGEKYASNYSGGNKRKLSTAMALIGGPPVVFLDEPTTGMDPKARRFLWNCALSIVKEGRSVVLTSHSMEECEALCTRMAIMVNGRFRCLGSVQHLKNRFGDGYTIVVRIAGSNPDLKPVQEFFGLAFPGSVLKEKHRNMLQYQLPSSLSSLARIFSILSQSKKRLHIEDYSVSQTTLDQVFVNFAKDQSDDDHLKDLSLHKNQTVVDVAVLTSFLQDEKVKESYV

apolipoprotein A-I [apo A-I] was tested, and the “Km, cholesterol efflux” value ([1]; 6 h) was 3.82±1.81 μg/ml and 0.15±0.05 μM, the “Vmax, cholesterol efflux” value [1] was 6.90±1.06 % efflux/6h and the “maximum efflux capacity, BHK-mock” value ([2]; acceptor in human plasma) was “similar”. The “Vmax, cholesterol efflux, BHK-mock” value ([2]; acceptor in human plasma 1 h, 37°C) was 0.30±0.15 % efflux/6h.
